Laboratory results as given in US6528487B1, “Peptide inhibitors of inflammation mediated by selectins” (Centocor, Inc., priority 1991, dated 2003).
“And” between values parts separate entries of the source, which are not always exact repeats. Identical values can stand only once. Each block holds one molecule with its values, some of them ahead of it. Non-standard residues stand in square brackets, D forms with d. No end group written: not given here. *: point of attachment. Fmoc = O=C(OCC1c2ccccc2-c2ccccc21)*

Experiments:
GMP-140 = molecular target: T1, GMP-140 (Homo sapiens, UniProt P16109); test: Inhibition of neutrophil binding to GMP-140 coated wells; type: cell-based; conditions: human neutrophils, immobilized GMP-140
T1 construct: from tissue; host or cells: human platelets (outdated platelet packs from a blood bank)
T1 sequence (P16109 42-830): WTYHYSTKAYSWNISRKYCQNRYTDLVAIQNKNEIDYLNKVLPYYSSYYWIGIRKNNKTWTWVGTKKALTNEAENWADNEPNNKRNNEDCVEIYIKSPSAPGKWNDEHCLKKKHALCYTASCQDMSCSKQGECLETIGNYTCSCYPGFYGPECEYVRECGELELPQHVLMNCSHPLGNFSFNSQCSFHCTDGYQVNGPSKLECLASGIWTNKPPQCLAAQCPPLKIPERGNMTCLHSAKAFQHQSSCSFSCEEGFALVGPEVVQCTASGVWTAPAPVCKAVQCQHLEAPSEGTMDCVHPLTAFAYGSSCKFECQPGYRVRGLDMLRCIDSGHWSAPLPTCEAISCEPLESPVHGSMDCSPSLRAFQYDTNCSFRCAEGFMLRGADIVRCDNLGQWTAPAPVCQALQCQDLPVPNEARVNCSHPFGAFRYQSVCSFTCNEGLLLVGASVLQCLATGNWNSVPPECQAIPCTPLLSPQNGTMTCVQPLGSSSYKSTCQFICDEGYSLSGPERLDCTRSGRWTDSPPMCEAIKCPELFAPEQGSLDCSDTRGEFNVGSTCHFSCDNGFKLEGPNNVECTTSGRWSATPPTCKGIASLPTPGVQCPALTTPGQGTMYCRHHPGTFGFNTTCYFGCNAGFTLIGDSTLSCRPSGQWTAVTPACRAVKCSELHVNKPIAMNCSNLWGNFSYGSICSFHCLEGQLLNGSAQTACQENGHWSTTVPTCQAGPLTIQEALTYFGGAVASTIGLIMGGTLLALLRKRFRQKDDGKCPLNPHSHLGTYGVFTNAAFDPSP
Source text: Peptides can be screened for their ability to inhibit adhesion to cells, for example, neutrophil adhesion to purified GMP-140 immobilized on plastic wells, using the assay described by Geng, et al., Nature 343, 757-760 (1990).
Human neutrophils are isolated from heparinized whole blood by density gradient centrifugation on Mono-Poly resolving media, Flow laboratories. Neutrophil suspensions are greater than 98% pure and greater than 95% viable by trypan blue exclusion. For adhesion assays, neutrophils are suspended at a concentration of 2×10^6 cells/mL in Hanks' balanced salt solution containing 1.26 mM Ca^2+ and 0.81 mM Mg^2+ (HBSS, Gibco) with 5 mg/mL human serum albumin (HBSS/HSA). Adhesion assays are conducted in triplicate in 96-well microtiter plates, Corning, incubated at 4° C. overnight with 50 microliters of various protein solutions.
GMP-140 is isolated from human platelet lysates by immunoaffinity chromatography on antibody S12-Sepharose™ and ion-exchange chromatography on a Mono-Q™ column (FLPC, Pharmacia Fine Chemicals, as follows.
GMP-140 is plated at 5 micrograms/mL and the control proteins: human serum albumin (Alb), platelet glycoprotein Iib/IIIha (Iib), von Willebrand factor (vWF), fibrinogen (FIB), thrombomodulin™, gelatin (GEL) or human serum (HS), are added at 50 micrograms/mL. All wells are blocked for 2 h at 22° C. with 300 microliters HBSS containing 10 mg/mL HSA, then ashed three times with HBSS containing 0.1% Tween-20 and once with HBSS. Cells (2×10^5 per well are added to the wells and incubated at 22° C. for 20 min. The wells are then filled with HGSS/HSA, sealed with acetate tape (Dynatech), and centrifuged inverted at 150 g for 5 min. After discarding nonadherent cells and supemates, the contents of each well are solubilized with 200 microliters of 0.5% hexadecyltrimethylammonium bromide, Sigma, in 50 mM potassium phosphate, pH 6.0, and assayed for myeloperoxidase activity, Ley, et al., Blood 73, 1324-1330 (1989). The number of cells bound is derived from a standard curve of myeloperoxidase activity versus numbers of cells. Under all assay conditions, the cells release less than 5% of total myeloperoxidase and lactate dehydrogenase. Inhibition is read as a lower percent adhesion, so that a value of 5% means that 95% of the specific adhesion was inhibited.
Binding of various peptides to GMP-140 coated wells, as described above, were compared.
Binding of the peptides at various concentrations, ranging from 0.05 to 1 mM were compared.
A 5 μg/mL solution of GMP-140 in HBSS (buffer) is prepared. 50 μL is pipetted per well with the exception of three wells (A10 to A12) and the plate is stored overnight at 0° C. to 4° C. The liquids are removed by aspiration and 300 μL of 5 mg/mL human serum albumin (HSA)/HBSS is placed in the wells coated with GMP-140 plus the three non-coated wells to be used as control wells. The plate is allowed to incubate at room temperature for two hours. The HSA/HBSS solution is removed and the wells washed three times with 300 μL/well of HBSS. The third 300 μL wash of HBSS is left in each well and the plate is kept at room temperature until it is used.
Eight to ten mL of fresh human blood collected in heparinized tubes is carefully layered over 5 mL of the Mono-Poly Resolving Medium in 15 mL polypropylene centrifuge tubes. The tubes are centrifuged for 30 minutes at room temperature and 1400 to 1600 rpm. The tubes are rotated 180° and centrifuged for another 30 minutes under the same conditions. The top plasma layer and first cellular layer of leukocytes are drawn off. The second cellular layer of neutrophils is harvested (usually 2 to 3 mL per tube) and is placed in a clean 15 mL centrifuge tube. This is then underlayered with 1.5 mL of fresh resolving medium and spun at 2000 rpm for 15 minutes at room temperature. This is done to further purify the neutrophils from residual red blood cells. […]

[1] = molecular target: GMP-140 receptors on the surface of leukocytes (human); test: neutrophil adhesion to GMP-140 coated wells, peptide preincubated with neutrophils, myeloperoxidase read-out

Percent inhibition of neutrophil binding to GMP-140 (GMP-140; peptide concentration 0.1 mM): 17%
Percent inhibition of neutrophil binding to GMP-140 (GMP-140; peptide concentration 0.5 mM): 20%
Molecule: Arg-Lys-Asn-Asn-Lys-Thr-Trp-Thr-Trp-Glu-NH2 (RKNNKTWTWE-NH2)

Percent inhibition of neutrophil binding to GMP-140 (GMP-140; peptide concentration 0.1 mM): 35%
Percent inhibition of neutrophil binding to GMP-140 (GMP-140; peptide concentration 0.5 mM): 50%
Molecule: Ac-Arg-Lys-Asn-Asn-Lys-Thr-Trp-Thr-Trp-Val-NH2 (Ac-RKNNKTWTWV-NH2)

Percent inhibition of neutrophil binding to GMP-140 (GMP-140; peptide concentration 0.1 mM): 0%
Percent inhibition of neutrophil binding to GMP-140 (GMP-140; peptide concentration 0.5 mM): 0%
Percent inhibition of neutrophil binding to GMP-140 (GMP-140; peptide concentration 1.0 mM): 0%
Molecule: KWKWNRTNVT-NH2 [reference compound]

percent inhibition of neutrophil binding to GMP-140 at 0.1 mM peptide [1]: 87%
percent inhibition of neutrophil binding to GMP-140 at 1.0 mM peptide [1]: 105%
B1: …-NH2 (peptide)
peptide: CRKNNKTWTWV-NH2

percent inhibition of neutrophil binding to GMP-140 at 0.1 mM peptide [1]: 0%
percent inhibition of neutrophil binding to GMP-140 at 0.5 mM peptide [1]: 0%
percent inhibition of neutrophil binding to GMP-140 at 1.0 mM peptide [1]: 0%
B2: …-NH2 (control peptide) (peptide)
peptide: KWKWNRTNVT-NH2

percent inhibition of neutrophil binding to GMP-140 at 0.1 mM peptide [1]: 9%
percent inhibition of neutrophil binding to GMP-140 at 1.0 mM peptide [1]: 47%
B3: …-NH2 (peptide)
peptide: RKNNKTWTWVGTKKALTNEC-NH2

percent inhibition of neutrophil binding to GMP-140 at 0.1 mM peptide [1]: 35%
percent inhibition of neutrophil binding to GMP-140 at 0.5 mM peptide [1]: 50%
B4: Ac-…-NH2 (peptide)
peptide: Ac-RKNNKTWTWV-NH2

percent inhibition of neutrophil binding to GMP-140 at 0.1 mM peptide [1]: 94%
percent inhibition of neutrophil binding to GMP-140 at 0.5 mM peptide [1]: 102%
B5: …-NH2 (peptide)
peptide: RKVNNVWVWV-NH2

percent inhibition of neutrophil binding to GMP-140 at 0.1 mM peptide [1]: 17%
percent inhibition of neutrophil binding to GMP-140 at 0.5 mM peptide [1]: 20%
B6: …-NH2 (peptide)
peptide: RKNNKTWTWE-NH2

percent inhibition of neutrophil binding to GMP-140 at 0.1 mM peptide [1]: 85%
percent inhibition of neutrophil binding to GMP-140 at 0.5 mM peptide [1]: 100%
percent inhibition of neutrophil binding to GMP-140 at 1.0 mM peptide [1]: 99%
B7: FMOC-NNKTW-NH2 (peptide)
peptide: Fmoc-NNKTW-NH2
SMILES: C[C@@H](O)[C@H](NC(=O)[C@H](CCCCN)NC(=O)[C@H](CC(N)=O)NC(=O)[C@H](CC(N)=O)NC(=O)OCC1c2ccccc2-c2ccccc21)C(=O)N[C@@H](Cc1c[nH]c2ccccc12)C(N)=O

percent inhibition of neutrophil binding to GMP-140 at 0.1 mM peptide [1]: 31%
percent inhibition of neutrophil binding to GMP-140 at 0.5 mM peptide [1]: 53%
percent inhibition of neutrophil binding to GMP-140 at 1.0 mM peptide [1]: 99%
B8: RKNNKTW-NH2 (peptide)
peptide: RKNNKTW-NH2

percent inhibition of neutrophil binding to GMP-140 at 0.1 mM peptide [1]: 14%
percent inhibition of neutrophil binding to GMP-140 at 1.0 mM peptide [1]: 35%
B9: … (peptide)
peptide: RKNNKTWTWV

percent inhibition of neutrophil binding to GMP-140 at 0.1 mM peptide [1]: 26%
percent inhibition of neutrophil binding to GMP-140 at 0.5 mM peptide [1]: 23%
percent inhibition of neutrophil binding to GMP-140 at 1.0 mM peptide [1]: 34%
B10: RKNNKTWT-NH2 (peptide)
peptide: RKNNKTWT-NH2

percent inhibition of neutrophil binding to GMP-140 at 0.1 mM peptide [1]: 9%
percent inhibition of neutrophil binding to GMP-140 at 0.5 mM peptide [1]: 98%
percent inhibition of neutrophil binding to GMP-140 at 1.0 mM peptide [1]: 104%
B11: …-NH2 (peptide)
peptide: YKNNKTWTWV-NH2

percent inhibition of neutrophil binding to GMP-140 at 0.1 mM peptide [1]: 46%
percent inhibition of neutrophil binding to GMP-140 at 0.5 mM peptide [1]: 99%
percent inhibition of neutrophil binding to GMP-140 at 1.0 mM peptide [1]: 99%
B12: …-NH2 (peptide)
peptide: RKNNGTWTWV-NH2

percent inhibition of neutrophil binding to GMP-140 at 0.1 mM peptide [1]: 13% and 14%
percent inhibition of neutrophil binding to GMP-140 at 0.5 mM peptide [1]: 20% and 30%
B13: …-NH2 (peptide)
peptide: RKNNKTWTWV-NH2

percent inhibition of neutrophil binding to GMP-140 at 0.1 mM peptide [1]: 67%
percent inhibition of neutrophil binding to GMP-140 at 0.5 mM peptide [1]: 88%
percent inhibition of neutrophil binding to GMP-140 at 1.0 mM peptide [1]: 97%
B14: RkIGGIWTWV-NH2 (peptide)
peptide: R[dK]IGGIWTWV-NH2
modifications: N-terminus assumed
SMILES: CC[C@H](C)[C@H](NC(=O)CNC(=O)CNC(=O)[C@@H](NC(=O)[C@@H](CCCCN)NC(=O)[C@@H](N)CCCNC(=N)N)[C@@H](C)CC)C(=O)N[C@@H](Cc1c[nH]c2ccccc12)C(=O)N[C@H](C(=O)N[C@@H](Cc1c[nH]c2ccccc12)C(=O)N[C@H](C(N)=O)C(C)C)[C@@H](C)O

percent inhibition of neutrophil binding to GMP-140 at 0.1 mM peptide [1]: 95%
percent inhibition of neutrophil binding to GMP-140 at 0.5 mM peptide [1]: 96%
B15: r…-NH2 (peptide)
peptide: [dR]KIGGIWTWV-NH2
modifications: N-terminus assumed
SMILES: CC[C@H](C)[C@H](NC(=O)CNC(=O)CNC(=O)[C@@H](NC(=O)[C@H](CCCCN)NC(=O)[C@H](N)CCCNC(=N)N)[C@@H](C)CC)C(=O)N[C@@H](Cc1c[nH]c2ccccc12)C(=O)N[C@H](C(=O)N[C@@H](Cc1c[nH]c2ccccc12)C(=O)N[C@H](C(N)=O)C(C)C)[C@@H](C)O

percent inhibition of neutrophil binding to GMP-140 at 0.1 mM peptide [1]: 96%
percent inhibition of neutrophil binding to GMP-140 at 0.5 mM peptide [1]: 103%
percent inhibition of neutrophil binding to GMP-140 at 1.0 mM peptide [1]: 105%
B16: …-NH2 (peptide)
peptide: RKIGGIWTWV-NH2

percent inhibition of neutrophil binding to GMP-140 at 0.1 mM peptide [1]: 34%
percent inhibition of neutrophil binding to GMP-140 at 0.5 mM peptide [1]: 94%
percent inhibition of neutrophil binding to GMP-140 at 1.0 mM peptide [1]: 96%
B17: …-NH2 (peptide)
peptide: RENNKTWTWV-NH2

percent inhibition of neutrophil binding to GMP-140 at 0.1 mM peptide [1]: 82%
percent inhibition of neutrophil binding to GMP-140 at 0.5 mM peptide [1]: 98%
B18: … (peptide)
peptide: RKVNNVWVWV

percent inhibition of neutrophil binding to GMP-140 at 1.0 mM peptide [1]: 17%
B19: RKVNNVW-NH2 (peptide)
peptide: RKVNNVW-NH2
